Experimental data as given in patent US20210040206A1.
Each block holds one binder with its values, some of them ahead of it.

Tests used:
[1] = target: SIRPa v2 (antigen of the ELISA of FIG. 9B) (human) (UniProt P78324); assay: ELISA against SIRPa v2; given as ED50
[2] = target: human SIRPa expressed by blood monocytes of heterozygous V1/V2 donors (cells carry both SIRPa v1 and SIRPa v2); assay: flow cytometry competition, recombinant CD47-Fc on heterozygous V1/V2 monocytes (n=5)
[3] = target: human SIRPa expressed by blood monocytes of heterozygous V1/V2 donors (cells carry both SIRPa v1 and SIRPa v2); assay: FACS competition on human monocytes of V1/V2 donors; blocked ligand: biotinylated CD47Fc, revealed with streptavidin-PE
[4] = target: SIRPa V6 (SNP12 + 13) recombinant protein, extracellular domain fused with mouse Fc from IgG2a (human; mouse) (UniProt P78324); assay: ELISA on immobilised SIRPa variant-mouse Fc, donkey anti-human IgG peroxidase, TMB 450 nm; given as ED50
Chain of SIRPa V6 (SNP12 + 13) recombinant protein, extracellular domain fused with mouse Fc from IgG2a (human; mouse) (P78324 31-373 N100E limits assumed): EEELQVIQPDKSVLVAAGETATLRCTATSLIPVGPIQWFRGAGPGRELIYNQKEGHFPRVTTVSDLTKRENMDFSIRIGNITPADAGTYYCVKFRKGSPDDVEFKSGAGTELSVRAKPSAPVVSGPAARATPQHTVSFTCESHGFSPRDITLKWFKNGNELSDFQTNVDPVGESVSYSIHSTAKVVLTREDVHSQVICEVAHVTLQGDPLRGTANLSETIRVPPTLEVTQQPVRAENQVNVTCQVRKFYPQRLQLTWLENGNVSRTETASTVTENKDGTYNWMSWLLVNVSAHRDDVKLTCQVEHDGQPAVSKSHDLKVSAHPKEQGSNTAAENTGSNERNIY

[5] = target: SIRPa V5 (SNP9 + 10 + 11) recombinant protein, extracellular domain fused with mouse Fc from IgG2a (human; mouse) (UniProt P78324); assay: as above
Chain of SIRPa V5 (SNP9 + 10 + 11) recombinant protein, extracellular domain fused with mouse Fc from IgG2a (human; mouse) (P78324 31-373 D95E/L96S limits assumed): as the sequence (P78324 31-373 N100E limits assumed) above, with D65E, L66S, E70N counted along it

SIRPv2 (human;mouse) = SIRPv2 (human;mouse) (UniProt P78324); assay: as above
Chain of SIRPv2 (human;mouse) (P78324 31-373): as the sequence (P78324 31-373 N100E limits assumed) above, with E70N counted along it

[6] = target: SIRPa V7 (SNP14 + ?) recombinant protein, extracellular domain fused with mouse Fc from IgG2a (human; mouse) (UniProt P78324); assay: as above
Chain of SIRPa V7 (SNP14 + ?) recombinant protein, extracellular domain fused with mouse Fc from IgG2a (human; mouse) (P78324 31-373 R107S/G109S limits assumed): as the sequence (P78324 31-373 N100E limits assumed) above, with E70N, R77S, G79S counted along it

[7] = target: SIRPa V1 recombinant protein (extracellular domain fused with mouse Fc from IgG2a) (human; mouse) (UniProt P78324); assay: as above
Chain of SIRPa V1 recombinant protein (extracellular domain fused with mouse Fc from IgG2a) (human; mouse) (P78324 31-373 limits assumed): as the sequence (P78324 31-373 N100E limits assumed) above, with E70N counted along it

[8] = target: SIRPa V3 (SNP1 + 2 + 3 + 4 + 5 + 6) recombinant protein, extracellular domain fused with mouse Fc from IgG2a (human; mouse) (UniProt P78324); assay: as above
Chain of SIRPa V3 (SNP1 + 2 + 3 + 4 + 5 + 6) recombinant protein, extracellular domain fused with mouse Fc from IgG2a (human; mouse) (P78324 other isoform, or with tags, fused parts or gaps limits assumed): as the sequence (P78324 31-373 N100E limits assumed) above, with L14S, T20S, T22I, R24H, A27V, E70N counted along it

[9] = target: SIRPa V8 (SNP15 + 16) recombinant protein, extracellular domain fused with mouse Fc from IgG2a (human; mouse) (UniProt P78324); assay: as above
[10] = target: SIRPa V4 (SNP8) recombinant protein, extracellular domain fused with mouse Fc from IgG2a (human; mouse) (UniProt P78324); assay: as above
Chain of SIRPa V4 (SNP8) recombinant protein, extracellular domain fused with mouse Fc from IgG2a (human; mouse) (P78324 31-373 G75A limits assumed): as the sequence (P78324 31-373 N100E limits assumed) above, with G45A, E70N counted along it

Chain of SIRPa v2 (antigen of the ELISA of FIG. 9B) (human) (P78324 other isoform, or with tags, fused parts or gaps limits assumed): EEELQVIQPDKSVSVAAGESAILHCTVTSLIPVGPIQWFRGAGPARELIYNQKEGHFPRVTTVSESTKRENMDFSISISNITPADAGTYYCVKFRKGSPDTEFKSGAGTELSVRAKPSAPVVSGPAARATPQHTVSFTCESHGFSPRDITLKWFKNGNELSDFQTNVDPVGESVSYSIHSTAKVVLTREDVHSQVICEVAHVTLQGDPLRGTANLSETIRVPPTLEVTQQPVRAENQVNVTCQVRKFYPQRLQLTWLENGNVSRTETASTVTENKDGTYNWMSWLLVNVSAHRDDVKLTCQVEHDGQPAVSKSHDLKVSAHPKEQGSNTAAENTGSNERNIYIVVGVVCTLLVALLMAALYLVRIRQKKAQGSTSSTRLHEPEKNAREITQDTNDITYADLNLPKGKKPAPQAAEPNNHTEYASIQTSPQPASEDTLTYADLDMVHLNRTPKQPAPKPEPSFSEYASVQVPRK

- EC50 [1]: 5720 ng/mL
B1: chimeric 18D5 antibody (antibody, from a related filing, V domains shown)
VH: QVQLQQPGAELVRPGSSVKLSCKASGYTFTSYWVHWVKQRPIQGLEWIGNIDPSDSDTHYNQKFKDKASLTVDKSSSTAYMQLSSLTFEDSAVYYCVRGGTGTMAWFAYWGQGTLVTVSA
VL: DVVMTQTPLSLPVSLGDQASISCRSSQSLVHSYGNTYLYWYLQKPGQSPKLLIYRVSNRFSGVPDRFSGSGSGTDFTLKISRVEAEDLGVYFCFQGTHVPYTFGSGTKLEIKR

- reduction of CD47-Fc binding [2]: 50%
- IC50 (read off the curve) [3]: 100 ng/mL
B2: in-house anti-human SIRPa v1 antibody (antibody, human IgG4, V domains shown)
VH: EVQLVQSGAEVKKPGESLRISCKASGYSFTSYWVHWVRQMPGKGLEWMGNIDPSDSDTHYSPSFQGHVTLSVDKSISTAYLQLSSLKASDTAMYYCVRGGTGTLAYFAYWGQGTLVTVSS
VL: DVVMTQSPLSLPVTLGQPASISCRSSQSLVHSYGNTYLYWFQQRPGQSPRLLIYRVSNRFSGVPDRFSGSGSGTDFTLKISRVEAEDVGVYYCFQGTHVPYTFGGGTKVEIK

- EC50 [4]: 0.75 ng/mL
- EC50 [5]: 0.78 ng/mL
- EC50 (SIRPv2 (human;mouse)): 0.77 ng/mL
- EC50 [6]: 0.6 ng/mL
- EC50 [7]: 0.77 ng/mL
- EC50 [8]: 0.77 ng/mL
- EC50 [9]: 0.93 ng/mL
- EC50 [10]: 0.74 ng/mL
B3: Kwar antibody (antibody, from a related filing, V domains shown)
VH: EVQLQQSGAELVKPGASVKLSCTASGFNIKDYYIHWVQQRTEQGLEWIGRIDPEDGETKYAPKFQDKATITADTSSNTAYLHLSSLTSEDTAVYYCARWGAYWGQGTLVTVSS
VL: QIVLTQSPAIMSASPGEKVTLTCSASSSVSSSYLYWYQQKPGSSPKLWIYSTSNLASGVPARFSGSGSGTSYSLTISSMEAEDAASYFCHQWSSYPRTFGAGTKLELK
